Reference: publication PMC9371709 (Proceedings of the National Academy of Sciences of the …, 2022)
Values joined by “and” are separate entries in the source; they are usually repeats but may differ in a detail not shown here. Equal values may be shown once.

What was measured:
[1] = biological target: the molecule itself; experiment: SEC-MALS
[2] = biological target: the molecule itself; experiment: cryo-EM structure

B1: human Twinkle helicase W315L (C-terminal his-tag Δ42, FL residues 43–684) (enzyme, UniProt Q96RR1 43-684, looked up)
chain: ETLQALDMPVLPVTATEIRQYLRGHGIPFQDGHSCLRALSPFAESSQLKGQTGVTTSFSLFIDKTTGHFLCMTSLAEGSWEDFQASVEGRGDGAREGFLLSKAPEFEDSEEVRRIWNRAIPLWELPDQEEVQLADTMFGLTKVTDDTLKRFSVRYLRPARSLVFPWFSPGGSGLRGLKLLEAKCQGDGVSYEETTIPRPSAYHNLFGLPLISRRDAEVVLTSRELDSLALNQSTGLPTLTLPRGTTCLPPALLPYLEQFRRIVFWLGDDLRSLEAAKLFARKLNPKRCFLVRPGDQQPRPLEALNGGFNLSRILRTALPAWHKSIVSFRQLREEVLGELSNVEQAAGLRWSRFPDLNRILKGHRKGELTVFTGPTGSGKTTFISEYALDLCSQGVNTLWGSFEISNVRLARVMLTQFAEGRLEDQLDKYDHWADRFEDLPLYFMTFHGQQSIRTVIDTMQHAVYVYDICHVIIDNLQFMMGHEQLSTDRIAAQDYIIGVFRKFATDNNCHVTLVIHPRKEDDDKELQTASIFGSAKASQEADNVLILQDRKLVTGPGKRYLQVSKNRFDGDVGVFPLEFNKNSLTFSIPPKNKARLKKIKDDTGPVAKKPSSGKKGATTQNSEICSGQAPTPDQPDTSKRSK
[1]
  stoichiometry N: ~8
[2]
  stoichiometry N: 7 and 8
